Two molecules from patent US20250163122A1, “COMPOSITIONS AND METHODS FOR TREATING AIRWAY MUCUS DYSFUNCTION” (BOARD OF REGENTS, THE UNIVERSITY OF TEXAS SYSTEM, priority 2022, published 2025) can be followed below.

Bridges are numbered along the chain shown (N, C = ends). Where no end group is shown, it is not given here. [ ]: non-standard residue; d: D form. S5 = C=CCCC[C@](C)(N)C(=O)O

Experiment [1] concerns the target T1, Syt1 C2B (Homo sapiens (Human), UniProt P21579 272-422).
T1 construct: Expressed as a GST fusion in E. coli and the tag cleaved with PreScission protease; also called C2B domain of Syt1; Syt1C2B, aa 271-421
In words: bulk fluorescence anisotropy, Cy3-labeled peptide with varying concentrations of C2B. On the technique in general: Polarisation of emitted light reports the rotation of a fluorescent probe.

Experiment [2] concerns the target T2, Syt2 C2B (Rattus norvegicus (Rat), UniProt P29101 272-422).
T2 construct: also called C2B domain of Syt2
The experiment is described as above.

The target of experiment [3] is T1, Syt1 C2B. The experiment in a line: bulk fluorescence anisotropy, Cy3-labeled peptide with varying concentrations of unlabeled C2B; Hill fit with coefficient constrained to one.
Experiment [4] has as its target T2, Syt2 C2B. The description is as above.

T2 sequence (P29101 272-422 limits assumed): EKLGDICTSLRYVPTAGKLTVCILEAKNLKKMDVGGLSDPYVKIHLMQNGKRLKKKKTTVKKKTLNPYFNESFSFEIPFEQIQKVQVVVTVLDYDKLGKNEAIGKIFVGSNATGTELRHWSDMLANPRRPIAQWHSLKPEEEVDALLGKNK
T1 sequence (P21579 272-422 limits assumed): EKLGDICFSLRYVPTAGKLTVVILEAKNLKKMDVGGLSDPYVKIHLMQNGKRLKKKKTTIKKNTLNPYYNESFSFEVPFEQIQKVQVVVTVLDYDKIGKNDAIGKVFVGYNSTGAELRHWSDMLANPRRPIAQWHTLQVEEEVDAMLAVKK

B1: P0-Cy3 (peptide)
peptide: EESKDAGIRTLVMLDEQGEQLD-{C(Cy3 maleimide)-NH2}
notes: Labeled control peptide of the anisotropy assay; also called PO-Cy3; Cy3-labeled P0
With B1, the binding result in experiment [1] and in experiment [2] was “no binding” each time.

B2: SP9-Cy3 (peptide)
peptide: Ac-EE[S5]KDA[S5]IR[S5]LVM[S5]DEQ
modifications: staple 10-14, 3-7; not fully specified (C-terminus); printed as Ac-EE(S5)KDA(S5)IR(S5)LVM(S5)DEQ-(C/Cy3Mal)-amide; also: Cy3 maleimide on C-terminal Cys
notes: Synthetic hydrocarbon-stapled peptide; This Cy3-labeled form was used in the bulk fluorescence anisotropy assay, diluted to 10 nM; also called Cy3 labeled SP9; Cy3-labeled SP9
For orientation: Kd means a measure of binding affinity in units of concentration. Read a high Kd as lower affinity. As to B2, the Kd was 24 µM in experiment [3] and 35 µM in experiment [4].
